Assay results as given in the nanobody polyreactivity screen of Harvey et al. (2022).

Test: yeast display, Sf9 membrane polyspecificity reagent, FACS + sequencing; frameworks hold sequencing errors
Method in brief: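 Synthetic nanobody libraries on Saccharomyces cerevisiae BJ5465 were galactose-induced for 36–48 hours, stained 1 hour at 4 °C with 10% biotinylated, detergent-solubilized Sf9 membrane reagent and enriched on streptavidin microbeads. FACS then separated cells into low and high (top ~1%) gates by anti-HA (expression) and streptavidin (reagent binding) fluorescence. Genes were colony-PCR amplified, MiSeq 2 × 250 sequenced and CDR-length filtered. A clone's polyreactivity label is that of its gate of origin.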

| Sequence | polyreactivity (PSR sort gate) |
| --- | --- |
| QVQLVESGGGLVQAGGSLRLSCAASGSTFDYYTMGWYRQAPGKERELVAAISSSGGSTYYADSVKGRFTISRDNAKNTVYLQMNSLKPEDTAVYYCAADPSPYGDEYDYWGQGTQVTVSS | low polyreactivity |
| QVQLVESGGGLVQAGGSLRLSSAASGSIFPKNTMGWYRQAPGKERELVAAISKSGGSTYYADSVKGRFTISRDNAKNTVYLQMNSLKPEDTAVYYCAAALGLRSTSWGRRGGGGDYWGQGTQVTVSS | high polyreactivity |
| QVQLVESGGGLVQAGGSLRLSCAASGGTFGSYAMGWYRQAPGKERELVAAIRSGDRTYYADSVKGRFTISRDNAKNTVYLQMNSLKPEDTAVYYCNADGYARFRTYYSRDTREYDYWGQGTQVTVSS | low polyreactivity |
| QVQLVESGGGLVQAGGSLRLSCAASGRIFGDYGMGWYRQAPGKERELVAAITDRGGTTYYADSVKGRFTISRDNAKNTVFLQMNSLKPEDTAVYYCNARQSDIFDYDYWGKGTQVTVSS | low polyreactivity |
| QVQLVESGGGLVQAGGSLRLSCAASGSIFDFYAMGWDRQAPGKERELVAAISGSGGSTYYADSVKGRFTISRDNAKNTVYLQMNSLKPEDTAVYYCNAATYRTRHSNNGYWGQGTQVTVSS | low polyreactivity |
| QVQLVESGGGLFQAGGSLRLSCAASGSIFSKYAMAWYRQAPGKERELVAAITLNGGSTYYADSVKGRFTISRDNAKNTVYLQMNSLNPEDTAVYYCAKSDRPWWGYYYQFDYWGQGTQVTVSS | low polyreactivity |
| QVQLVESGGGLVQAGGSLRLICAASGRTFAYYAMGWYRQAPGKERELVATITWNGGSTYYADSVKGRFTISRDNAKNTVYLQMNSLKPEDTAVYYCAKSVGWWSPPLGDYWGQGTQVTVSS | low polyreactivity |
| QVQHAESGGGLVQAGGSLRLSCAASGSTSAKNVMGWYRQAPGKVRELVAAISRSGGRTYYADSVKGRFTISRDNAKNTVYLQMNSLNPEDTAVYYCAARSATNHADDYYYWGQGTQVTVSS | high polyreactivity |
| QVQLVESGGGLVQAGGSLRLSCAASGSTFGYNAMGWYRQAPGKERELVAAITWSGGSTYYADSVKGRFTISRDNAKNTVYLQMNSLKPEDTAVYYCAADDWYNSTWHYYYWGQGTQVTVSS | low polyreactivity |
| QVQLVESGGGLVQAGGSLRLSCAASGYTFWDYTMGWYRQAPGKEREFVAAINWSGGSTYYADSVKGRFTISRDNAKKTVYLQMNSLKPEDTAVYYCAARRGGRRGYDYWGQGTQVTVSS | high polyreactivity |
| QVQLEESGGGLVQAGGSLRLSCAASGSIFQTYAMGWSRQAPGKERQLVAAITSGGGSTYYADSVKGRFTISRDNAKNTVYLQMNSLKREDTAVYYCAAGSRFVSSRLYYWGQGTQVTVSS | high polyreactivity |
| QVQLVETGGGLVQAGGSLRLSCAASGYIFGYVMGWYRQAPGKERELVAAITYSSGNTYYADSVKGRFTISRDNAKNTVYLQMNSLKPEDTAVYYCAKQAYYKGRLAYGYWGQGTQVTVSS | high polyreactivity |
| QVQLVESGGGLVQAGGRLRLSCAASGRIFTYNAMGWYRQAPGKEREFVAAISSGGSTTYADSVKGRFTISRDNAKNTVYLQMNSRKPEDTAVYYCAARGWRFAIIEYEYWGQGTQVTVSS | low polyreactivity |
| QVQLVESGGGLVQAGGSLRLSCAASGRIFRRNTMGWYRQAPGKERELVAAITSSGGSTYADSVKGRFTISRDNAKNTVYLQMNSLTPEDTAVYYCATYVAYHRGYRTYDHWGQGTHVTVSS | low polyreactivity |
| QVQLVESGGGLVQAGGSLRLSCAASGYTFGVYVMGWYRQAPGKERELVAAISGSTYYADSVKGRFTISRDNAKNTVYLQMNSLKPEDTAVYYCAAESYFFSPRTREKFDYWGQGTQVTVTS | low polyreactivity |
| QVQLVESGGGLVQAGGSLRLSCAASGRIFYFYAMGWYRQAPGKEREFVATISYTGGSRYYSDSVKGRFTISRDIAKNTVYLQMNSLKPEDTAVYYCAVRGWYPGFRYDYWGQGTQVTVSS | low polyreactivity |
| QVQLVESGGGLVQAGGSLRLSCAASGLTFGGNAMGWYRQAPGKERELVAAISWSDDTTDYADSVKGRLTISRDNAKNTVYLQMNSLKPEDTAVYYCAARLPFEHVDYWGQGTQVTVSS | low polyreactivity |
